Assay results taken from PMC4679584.

Target: tumor suppressor gene 101 (TSG101) tagged with eYFP (UniProt Q99816)
Assay: FRET or BRET

Chain of UniProt Q99816 (Q99816 whole entry): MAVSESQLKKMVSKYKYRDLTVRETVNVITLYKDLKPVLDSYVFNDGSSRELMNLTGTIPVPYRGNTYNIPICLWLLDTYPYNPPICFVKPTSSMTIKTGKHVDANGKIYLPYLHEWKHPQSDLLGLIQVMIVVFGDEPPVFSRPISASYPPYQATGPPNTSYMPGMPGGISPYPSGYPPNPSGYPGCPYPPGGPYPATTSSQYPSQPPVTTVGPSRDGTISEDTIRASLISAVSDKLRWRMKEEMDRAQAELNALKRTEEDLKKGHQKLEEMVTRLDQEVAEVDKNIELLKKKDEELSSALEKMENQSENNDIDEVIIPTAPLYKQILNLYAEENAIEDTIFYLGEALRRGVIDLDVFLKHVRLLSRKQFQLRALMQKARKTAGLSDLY

In the case of “wild-type HEV ORF3 protein (Kernow-C1 P6, genotype 3) tagged with eCFP (natural protein)”, the FRET efficiency is reported as 21.5%.
